B1: HNF4A (parent)
chain: RFSRQCVVDKDKRNQCRYCRLKKC
B2: C10orf62 (parent)
chain: MLWVQRKRRRKETSECPSDKDKSP

Variants of: B1
Experiment: protein stability index of a GFP-peptide fusion (GPS, HEK-293T) (PSI 1-6); higher = more stable
Conditions: c terminus: a fixed tail appended
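Note: lentivirally expressed fusions sorted by FACS into six bins by GFP to DsRed ratio, PSI derived from sequencing read proportions per bin multiplied by bin number.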

Variant | protein stability index
RFSRQCVVDKDKRNQCRYCRVKKC | 2.31
RFSRQCVVDKDKRNQCRYCRWKKC | 2.94
RFSRQCVVDKDKRNQCRYCRYKKC | 3.01
RFSRQCVVDKDKRNQCRYCRTKKC | 2.93
RFSRQCVVDKDKRNQCRYCRLMKC | 1.56
RFSRQCVVDKDKRNQCRYCRLPKC | 2.12
RFSRQCVVDKDKRNQCRYCRLSKC | 2.73
RFSRQCVVDKDKRNQCRYCRLHKC | 1.71
RFSRQCVVDKDKRNQCRYCRLYKC | 1.98
RFSRQCVVDKDKRNQCRYCRLCKC | 2.66
RFSRQCVVDKDKRNQCRYCRLLKC | 2.57
RFSRQCVVDKDKRNQCRYCRLEKC | 1.54
RFSRQCVVDKDKRNQCRYCRLAKC | 2.08
RFSRQCVVDKDKRNQCRYCRLVKC | 1.83
RFSRQCVVDKDKRNQCRYCRLRKC | 2.9
RFSRQCVVDKDKRNQCRYCRLFKC | 1.8
RFSRQCVVDKDKRNQCRYCRLQKC | 1.79
RFSRQCVVDKDKRNQCRYCRLDKC | 2.13
RFSRQCVVDKDKRNQCRYCRLIKC | 1.73

Variant | protein stability index
RFSRQCVVDKDKRNQCRYCRLGKC | 2.27
RFSRQCVVDKDKRNQCRYCRLTKC | 2.13
RFSRQCVVDKDKRNQCRYCRLKGC | 2.15
RFSRQCVVDKDKRNQCRYCRLKQC | 2.74
RFSRQCVVDKDKRNQCRYCRLKYC | 2.24
RFSRQCVVDKDKRNQCRYCRLKMC | 3.12
RFSRQCVVDKDKRNQCRYCRLKHC | 2.4
RFSRQCVVDKDKRNQCRYCRLKWC | 2.05
RFSRQCVVDKDKRNQCRYCRLKDC | 1.65
RFSRQCVVDKDKRNQCRYCRLKEC | 2.04
RFSRQCVVDKDKRNQCRYCRLKCC | 2.54
RFSRQCVVDKDKRNQCRYCRLKTC | 2.37
RFSRQCVVDKDKRNQCRYCRLKIC | 1.68
RFSRQCVVDKDKRNQCRYCRLKAC | 1.89
RFSRQCVVDKDKRNQCRYCRLKNC | 1.77
RFSRQCVVDKDKRNQCRYCRLKPC | 1.74
RFSRQCVVDKDKRNQCRYCRLKLC | 1.34
RFSRQCVVDKDKRNQCRYCRLKVC | 2.04
RFSRQCVVDKDKRNQCRYCRLKSC | 1.41

Variant | protein stability index
RFSRQCVVDKDKRNQCRYCRLKFC | 2.67
RFSRQCVVDKDKRNQCRYCRLKKG | 2.41
RFSRQCVVDKDKRNQCRYCRLKKV | 2.34
RFSRQCVVDKDKRNQCRYCRLKKR | 2.42
RFSRQCVVDKDKRNQCRYCRLKKI | 2.93
RFSRQCVVDKDKRNQCRYCRLKKF | 2.55
RFSRQCVVDKDKRNQCRYCRLKKY | 2.77
RFSRQCVVDKDKRNQCRYCRLKKN | 2.89
RFSRQCVVDKDKRNQCRYCRLKKT | 3.08
RFSRQCVVDKDKRNQCRYCRLKKM | 3.33
RFSRQCVVDKDKRNQCRYCRLKKE | 1.01
RFSRQCVVDKDKRNQCRYCRLKKH | 2.77
RFSRQCVVDKDKRNQCRYCRLKKA | 3.01
RFSRQCVVDKDKRNQCRYCRLKKS | 2.5
RFSRQCVVDKDKRNQCRYCRLKKK | 2.62
RFSRQCVVDKDKRNQCRYCRLKKQ | 2.5
RFSRQCVVDKDKRNQCRYCRLKKW | 1.81
RFSRQCVVDKDKRNQCRYCRLKKL | 2.39

Variants of: B2
Experiment: as above
Conditions: c terminus: a fixed tail appended

Variant | protein stability index
MLWVYRKRRRKETSECPSDKDKSP | 2.8
MLWVDRKRRRKETSECPSDKDKSP | 4.23
MLWVFRKRRRKETSECPSDKDKSP | 2.67
MLWVCRKRRRKETSECPSDKDKSP | 2.61
MLWVMRKRRRKETSECPSDKDKSP | 2.62
MLWVPRKRRRKETSECPSDKDKSP | 3.11
MLWVIRKRRRKETSECPSDKDKSP | 2.21
MLWVNRKRRRKETSECPSDKDKSP | 3.44
MLWVLRKRRRKETSECPSDKDKSP | 2.4
MLWVARKRRRKETSECPSDKDKSP | 3.98
MLWVKRKRRRKETSECPSDKDKSP | 4.1
MLWVSRKRRRKETSECPSDKDKSP | 3.85
MLWVHRKRRRKETSECPSDKDKSP | 2.97
MLWVWRKRRRKETSECPSDKDKSP | 1.93
MLWMQRKRRRKETSECPSDKDKSP | 2.52
MLWTQRKRRRKETSECPSDKDKSP | 2.73
MLWGQRKRRRKETSECPSDKDKSP | 3.89
MLWIQRKRRRKETSECPSDKDKSP | 2.87
MLWYQRKRRRKETSECPSDKDKSP | 2.71
MLWHQRKRRRKETSECPSDKDKSP | 3.86
MLWEQRKRRRKETSECPSDKDKSP | 4.56
MLWWQRKRRRKETSECPSDKDKSP | 2.57

Variant | protein stability index
MLWFQRKRRRKETSECPSDKDKSP | 2.94
MLWPQRKRRRKETSECPSDKDKSP | 3.11
MLWAQRKRRRKETSECPSDKDKSP | 4.6
MLWNQRKRRRKETSECPSDKDKSP | 3.87
MLWCQRKRRRKETSECPSDKDKSP | 3.91
MLWKQRKRRRKETSECPSDKDKSP | 3.56
MLWVQRGRRRKETSECPSDKDKSP | 3.23
MLWVQRTRRRKETSECPSDKDKSP | 3.15
MLWVQRCRRRKETSECPSDKDKSP | 2.31
MLWVQRQRRRKETSECPSDKDKSP | 3.74
MLWVQRHRRRKETSECPSDKDKSP | 3.69
MLWVQRVRRRKETSECPSDKDKSP | 2.69
MLWVQRYRRRKETSECPSDKDKSP | 1.57
MLWVQRPRRRKETSECPSDKDKSP | 3.97
MLWVQRLRRRKETSECPSDKDKSP | 1.73
MLWVQRIRRRKETSECPSDKDKSP | 1.95
MLWVQRNRRRKETSECPSDKDKSP | 3.9
MLWVQRDRRRKETSECPSDKDKSP | 3.97
MLWVQRWRRRKETSECPSDKDKSP | 2.49
MLWVQRRRRRKETSECPSDKDKSP | 3.29
MLWVQRMRRRKETSECPSDKDKSP | 3.06
MLWVQRSRRRKETSECPSDKDKSP | 3.85

Variant | protein stability index
MLWVQRARRRKETSECPSDKDKSP | 3.08
MLWVQRFRRRKETSECPSDKDKSP | 2.73
MLWVQRKRFRKETSECPSDKDKSP | 3.64
MLWVQRKRGRKETSECPSDKDKSP | 3.2
MLWVQRKRHRKETSECPSDKDKSP | 3.32
MLWVQRKRCRKETSECPSDKDKSP | 2.81
MLWVQRKRARKETSECPSDKDKSP | 3.71
MLWVQRKRERKETSECPSDKDKSP | 3.71
MLWVQRKRIRKETSECPSDKDKSP | 3.4
MLWVQRKRDRKETSECPSDKDKSP | 3.62
YLWVQRKRRRKETSECPSDKDKSP | 3.4
VLWVQRKRRRKETSECPSDKDKSP | 3.29
KLWVQRKRRRKETSECPSDKDKSP | 3.53
TLWVQRKRRRKETSECPSDKDKSP | 3.65
WLWVQRKRRRKETSECPSDKDKSP | 2.83
ILWVQRKRRRKETSECPSDKDKSP | 1.24
ALWVQRKRRRKETSECPSDKDKSP | 2.93
RLWVQRKRRRKETSECPSDKDKSP | 2.59
HLWVQRKRRRKETSECPSDKDKSP | 3.73
GLWVQRKRRRKETSECPSDKDKSP | 4
LLWVQRKRRRKETSECPSDKDKSP | 2.3
CLWVQRKRRRKETSECPSDKDKSP | 3.06

Variant | protein stability index
PLWVQRKRRRKETSECPSDKDKSP | 2.83
NLWVQRKRRRKETSECPSDKDKSP | 4.55
FLWVQRKRRRKETSECPSDKDKSP | 2.98
MLWVQRKCRRKETSECPSDKDKSP | 3.34
MLWVQRKYRRKETSECPSDKDKSP | 3.19
MLWVQRKMRRKETSECPSDKDKSP | 3.74
MLWVQRKIRRKETSECPSDKDKSP | 3.36
MLWVQRKHRRKETSECPSDKDKSP | 3.89
MLWVQRKTRRKETSECPSDKDKSP | 2.95
MLWVQRKDRRKETSECPSDKDKSP | 3.52
MLWVQRKQRRKETSECPSDKDKSP | 4.1
MLWVQRKFRRKETSECPSDKDKSP | 3.05
MLWVQRKLRRKETSECPSDKDKSP | 2.51
MLWVQRKKRRKETSECPSDKDKSP | 3.15
MLWVQRKSRRKETSECPSDKDKSP | 3.91
MLWVQRKERRKETSECPSDKDKSP | 5.08
MLWVQRKGRRKETSECPSDKDKSP | 4.16
MLWVQRKARRKETSECPSDKDKSP | 3.9
MLWVQRKNRRKETSECPSDKDKSP | 3.78
MIWVQRKRRRKETSECPSDKDKSP | 3.21
MVWVQRKRRRKETSECPSDKDKSP | 2.6
MPWVQRKRRRKETSECPSDKDKSP | 4.59

Variant | protein stability index
MYWVQRKRRRKETSECPSDKDKSP | 2.41
MEWVQRKRRRKETSECPSDKDKSP | 4
MDWVQRKRRRKETSECPSDKDKSP | 4.88
MTWVQRKRRRKETSECPSDKDKSP | 3.31
MWWVQRKRRRKETSECPSDKDKSP | 2.53
MHWVQRKRRRKETSECPSDKDKSP | 3.52
MKWVQRKRRRKETSECPSDKDKSP | 2.98
MMWVQRKRRRKETSECPSDKDKSP | 2.89
MNWVQRKRRRKETSECPSDKDKSP | 3.93
MFWVQRKRRRKETSECPSDKDKSP | 1.33
MAWVQRKRRRKETSECPSDKDKSP | 3.92
MCWVQRKRRRKETSECPSDKDKSP | 2.87
MLKVQRKRRRKETSECPSDKDKSP | 4.18
MLCVQRKRRRKETSECPSDKDKSP | 4.07
MLMVQRKRRRKETSECPSDKDKSP | 3.46
MLSVQRKRRRKETSECPSDKDKSP | 4.87
MLHVQRKRRRKETSECPSDKDKSP | 4.31
MLLVQRKRRRKETSECPSDKDKSP | 3.73
MLRVQRKRRRKETSECPSDKDKSP | 4.46
MLNVQRKRRRKETSECPSDKDKSP | 4.66
MLDVQRKRRRKETSECPSDKDKSP | 4.99
MLQVQRKRRRKETSECPSDKDKSP | 3.13

Variant | protein stability index
MLPVQRKRRRKETSECPSDKDKSP | 5.09
MLIVQRKRRRKETSECPSDKDKSP | 3.25
MLFVQRKRRRKETSECPSDKDKSP | 3.25
MLAVQRKRRRKETSECPSDKDKSP | 4.3
MLYVQRKRRRKETSECPSDKDKSP | 2.77
MLTVQRKRRRKETSECPSDKDKSP | 4.73
MLWVQCKRRRKETSECPSDKDKSP | 2.27
MLWVQGKRRRKETSECPSDKDKSP | 3.54
MLWVQTKRRRKETSECPSDKDKSP | 3.13
MLWVQKKRRRKETSECPSDKDKSP | 3.13
MLWVQEKRRRKETSECPSDKDKSP | 4.01
MLWVQIKRRRKETSECPSDKDKSP | 3.21
MLWVQNKRRRKETSECPSDKDKSP | 3.87
MLWVQQKRRRKETSECPSDKDKSP | 3.27
MLWVQSKRRRKETSECPSDKDKSP | 3.42
MLWVQMKRRRKETSECPSDKDKSP | 3.49
MLWVQLKRRRKETSECPSDKDKSP | 3.11
MLWVQHKRRRKETSECPSDKDKSP | 2.88
MLWVQFKRRRKETSECPSDKDKSP | 3.11
MLWVQVKRRRKETSECPSDKDKSP | 2.95
MLWVQWKRRRKETSECPSDKDKSP | 3.21
MLWVQDKRRRKETSECPSDKDKSP | 3.9

— the supplement of paper PMC10567573
